Consider 4 molecules from publication PMC8602626.

Residue numbers refer to the chain shown, from its start.

The assay has as its target GluA1::SNAP396 (UniProt P19490).
Sequence of UniProt P19490 (P19490 19-907): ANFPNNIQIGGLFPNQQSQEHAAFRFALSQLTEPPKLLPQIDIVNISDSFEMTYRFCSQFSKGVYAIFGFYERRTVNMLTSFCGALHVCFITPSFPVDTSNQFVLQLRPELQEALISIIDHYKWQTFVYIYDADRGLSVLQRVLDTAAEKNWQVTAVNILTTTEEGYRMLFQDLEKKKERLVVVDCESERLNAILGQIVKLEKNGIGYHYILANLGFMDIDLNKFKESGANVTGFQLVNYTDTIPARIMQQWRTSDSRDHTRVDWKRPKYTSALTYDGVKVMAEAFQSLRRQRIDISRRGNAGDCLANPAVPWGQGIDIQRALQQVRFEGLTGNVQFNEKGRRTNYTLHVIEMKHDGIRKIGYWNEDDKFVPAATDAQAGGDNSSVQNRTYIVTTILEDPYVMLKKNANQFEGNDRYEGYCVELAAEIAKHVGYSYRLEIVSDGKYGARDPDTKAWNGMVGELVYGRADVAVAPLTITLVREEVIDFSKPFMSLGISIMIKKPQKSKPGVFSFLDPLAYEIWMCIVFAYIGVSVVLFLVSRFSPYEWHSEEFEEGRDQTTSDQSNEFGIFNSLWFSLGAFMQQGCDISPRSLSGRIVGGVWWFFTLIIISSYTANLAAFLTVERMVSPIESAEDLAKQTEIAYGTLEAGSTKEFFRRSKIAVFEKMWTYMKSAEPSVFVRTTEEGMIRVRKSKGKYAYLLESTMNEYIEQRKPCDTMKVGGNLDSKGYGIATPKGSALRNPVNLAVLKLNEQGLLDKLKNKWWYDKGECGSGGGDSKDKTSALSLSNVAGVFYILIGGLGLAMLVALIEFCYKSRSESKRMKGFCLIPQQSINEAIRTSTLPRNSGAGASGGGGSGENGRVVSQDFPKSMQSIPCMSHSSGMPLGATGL

B1: γ2 S44* (natural protein)
chain: MGLFDRGVQMLLTTVGAFAAFSLMTIAVGTDYWLYSRGVCKTKKVSENETSKKNEEVMTHSGLWRTCCLEGNFKGLCKQIDHFPEDADYEADTAEYFLRAVRASSIFPILSVILLFMGGLCIAASEFYKTRHNIILSAGIFFVSAGLSNIIGIIVYISANAGDPSKSDSKKNSYSYGWSFYFGALSFIIAEMVGVLAVHMFIDRHKQLRATARATDYLQASAITRIPSYRYRYQRRSRSSSRSTEPSHSRDASPVGVKGFNTLPSTEISMYTLSRDPLKAATTPTATYNSDRDNSFLQVHNCIQKDSKDSLHANTANRRTTPV
modifications: TCO*A (trans-cyclooct-2-ene-L-lysine) at 44, clicked with H-Tet-Cy3
For the molecule B1, the recovery from desensitization τrec, whole-cell patch clamp, HEK293T cells with untagged GluA1 (flip isoform) and γ2 S44*::eGFP (GluA1 alone 162.6) came to 62.3 ms.

B2: γ2::eGFP (natural protein)
chain: B1 chain with K44S
Consider B2, for which the recovery from desensitization τrec, whole-cell patch clamp, HEK293T cells with untagged GluA1 (flip isoform) and γ2::eGFP (GluA1 alone 162.6) was 57.1 ms.

B3: γ8::eGFP (natural protein)
chain: MESLKRWNEERGLWCEKGVQVLLTTIGAFAAFGLMTIAISTDYWLYTRALICNTTNLTAGDDGPPHRGGSGSSEKKDPGGLTHSGLWRICCLEGLKRGVCVKINHFPEDTDYDHDSAEYLLRVVRASSIFPILSAILLLLGGVCVAASRVYKSKRNIILGAGILFVAAGLSNIIGVIVYISANAGEPGPKRDEEKKNHYSYGWSFYFGGLSFILAEVIGVLAVNIYIERSREAHCQSRSDLLKAGGGAGGSGGSGPSAILRLPSYRFRYRRRSRSSSRGSSEASPSRDASPGGPGGPGFASTDISMYTLSRDPSKGSVAAGLASAGGGGGGAGVGAYGGAAGAAGGGGTGSERDRGSSAGFLTLHNAFPKEAASGVTVTVTGPPAAPAPAPPAPAAPAPGTLSKEAAASNTNTLNRKTTPV
B3: the recovery from desensitization τrec, whole-cell patch clamp, HEK293T cells with untagged GluA1 (flip isoform) and γ8::eGFP (GluA1 alone 162.6) is 40.9 ms.

B4: γ8 S72* (natural protein)
chain: B3 chain with S72K
modifications: TCO*A (trans-cyclooct-2-ene-L-lysine) at 72, clicked with H-Tet-Cy3
Take B4: the recovery from desensitization τrec, whole-cell patch clamp, HEK293T cells with untagged GluA1 (flip isoform) and γ8 S72*::eGFP (GluA1 alone 162.6) was found to be 45.8 ms.
